Earlier results, collected in paper PMC5855594, “Poly-N-Acetyllactosamine Neo-Glycoproteins as Nanomolar Ligands of Human Galectin-3: Binding Kinetics and Modeling” (International Journal of Molecular Sciences, 2018).

Columns and labels:
[1] = target: Asialofetuin (Bos taurus) (UniProt P12763); assay: ITC
[2] = target: BSA neo-glycoprotein 11 (Bos taurus) (UniProt P02769); assay: ELISA
[3] = target: BSA neo-glycoprotein 12 (Bos taurus) (UniProt P02769); assay: ELISA
[4] = target: BSA neo-glycoprotein 13 (Bos taurus) (UniProt P02769); assay: ELISA
Sequence of BSA neo-glycoprotein 13 (Bos taurus) (P02769 25-607): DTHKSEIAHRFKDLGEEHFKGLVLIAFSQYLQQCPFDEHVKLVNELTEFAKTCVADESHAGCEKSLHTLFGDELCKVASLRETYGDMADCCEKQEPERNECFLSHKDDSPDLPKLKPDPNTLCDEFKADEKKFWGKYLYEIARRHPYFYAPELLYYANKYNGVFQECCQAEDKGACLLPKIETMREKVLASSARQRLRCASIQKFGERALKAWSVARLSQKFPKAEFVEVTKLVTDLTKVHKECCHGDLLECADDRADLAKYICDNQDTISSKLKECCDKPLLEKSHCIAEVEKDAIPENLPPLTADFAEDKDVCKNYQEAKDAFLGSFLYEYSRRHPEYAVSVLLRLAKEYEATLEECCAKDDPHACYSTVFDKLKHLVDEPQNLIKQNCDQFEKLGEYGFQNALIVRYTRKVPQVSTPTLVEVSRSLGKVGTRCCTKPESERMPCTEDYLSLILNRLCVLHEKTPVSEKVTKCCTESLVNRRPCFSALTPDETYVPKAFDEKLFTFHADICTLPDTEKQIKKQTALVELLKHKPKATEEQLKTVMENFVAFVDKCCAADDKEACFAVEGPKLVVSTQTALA

[5] = target: BSA neo-glycoprotein 14 (Bos taurus) (UniProt P02769); assay: ELISA
Sequence of BSA neo-glycoprotein 14 (Bos taurus) (P02769 25-607): as above

[6] = target: BSA neo-glycoprotein 15 (Bos taurus) (UniProt P02769); assay: ELISA
Sequence of BSA neo-glycoprotein 15 (Bos taurus) (P02769 25-607): as above

[7] = target: BSA neo-glycoprotein 16 (Bos taurus); assay: ELISA
Sequence of BSA neo-glycoprotein 16 (Bos taurus) (P02769 25-607): as above

[8] = target: BSA neo-glycoprotein 13 (Bos taurus) (UniProt P02769); assay: competitive ELISA
[9] = target: BSA neo-glycoprotein 14 (Bos taurus) (UniProt P02769); assay: competitive ELISA
[10] = target: BSA neo-glycoprotein 15 (Bos taurus) (UniProt P02769); assay: competitive ELISA
[11] = target: BSA neo-glycoprotein 16 (Bos taurus); assay: competitive ELISA

Sequence of Galectin-3 (P17931 2-250): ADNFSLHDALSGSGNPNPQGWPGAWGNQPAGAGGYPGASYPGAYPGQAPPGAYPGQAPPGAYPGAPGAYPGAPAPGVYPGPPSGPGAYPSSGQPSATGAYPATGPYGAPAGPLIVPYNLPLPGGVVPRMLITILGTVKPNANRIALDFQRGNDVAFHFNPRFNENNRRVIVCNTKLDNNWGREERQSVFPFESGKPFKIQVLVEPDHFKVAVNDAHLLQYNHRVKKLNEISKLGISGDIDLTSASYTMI
Sequence of BSA neo-glycoprotein 12 (Bos taurus) (P02769 25-607): as the sequence (P02769 25-607) above
Sequence of BSA neo-glycoprotein 11 (Bos taurus) (P02769 25-607): as above
Sequence of Asialofetuin (Bos taurus) (P12763 19-359): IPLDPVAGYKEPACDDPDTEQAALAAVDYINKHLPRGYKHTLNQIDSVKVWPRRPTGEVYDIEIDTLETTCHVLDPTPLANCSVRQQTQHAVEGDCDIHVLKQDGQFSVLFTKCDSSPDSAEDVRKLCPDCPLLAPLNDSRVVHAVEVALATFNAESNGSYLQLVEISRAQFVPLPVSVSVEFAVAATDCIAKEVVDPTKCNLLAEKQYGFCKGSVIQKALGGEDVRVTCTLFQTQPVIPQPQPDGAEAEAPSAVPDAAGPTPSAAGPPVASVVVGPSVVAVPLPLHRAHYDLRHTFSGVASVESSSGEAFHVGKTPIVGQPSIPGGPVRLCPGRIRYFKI

For Galectin-3 (from UniProt P17931), the Kd [1] is listed as 7.14 nM, the Kd [2] is listed as 30 nM and the Kd [3] is listed as 300 nM. For the same substance, the Kd [4] was 76 nM, the Kd [5] was 350 nM and the Kd [6] was 700 nM. The Kd [7] was 290 nM, the IC50 [8] was 37 nM and the IC50 [9] was 76 nM. The IC50 [10] was 212 nM and the IC50 [11] was 65 nM.
